# US20150231240A1, “ANTI-C16ORF54 ANTIBODIES AND METHODS OF USE THEREOF” (priority 2012, published 2015)
# How the values were obtained:
# [1] = molecular target: T1, C16orf54 on cell lines and primary samples (Homo sapiens, UniProt Q6UWD8); test: C16orf54 copy number enumeration by flow cytometry with AlexaFluor647 conjugated antibody; type: binding
# T1 sequence (Q6UWD8 1-224): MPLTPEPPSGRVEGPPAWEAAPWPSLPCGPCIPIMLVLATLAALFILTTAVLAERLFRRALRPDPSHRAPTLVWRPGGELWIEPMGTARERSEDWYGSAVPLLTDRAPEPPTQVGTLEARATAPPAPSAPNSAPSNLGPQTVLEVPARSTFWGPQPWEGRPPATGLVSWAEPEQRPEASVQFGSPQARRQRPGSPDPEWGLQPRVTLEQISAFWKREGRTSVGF
# Protocol: In some assays, human cell lines and primary samples were immunofluorescently stained using an anti-C16orf54 monoclonal antibody R29-7-1C that was conjugated to AlexaFluor647, and copy number of C16orf54 was determined by interpolation on a calibration curve generated by Quantum™ Simply Cellular® bead standards (Bangs Laboratories, Inc.) Copy number results are shown in Table 39 various cell lines and primary samples expressing C16orf54. […]
# [2] = molecular target: T2, C16orf54 on peripheral blood and bone marrow mononuclear cells (Homo sapiens, UniProt Q6UWD8); test: Flow cytometry of PBMC and BMMC from healthy donors; type: binding
# T2 construct: endogenous in cells; host or cells: PBMC and BMMC from healthy donors
# T2 sequence (Q6UWD8 1-224): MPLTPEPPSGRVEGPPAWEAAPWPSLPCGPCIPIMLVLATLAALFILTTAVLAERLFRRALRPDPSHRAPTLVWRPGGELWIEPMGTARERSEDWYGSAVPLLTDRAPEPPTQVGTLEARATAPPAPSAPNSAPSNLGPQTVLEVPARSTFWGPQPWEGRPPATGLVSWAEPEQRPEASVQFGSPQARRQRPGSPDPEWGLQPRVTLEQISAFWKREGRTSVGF
# Protocol: Anti-C16orf54 antibodies were tested for their binding to various cell lines and primary samples (e.g., AML, CLL, lymphoma) using flow cytometry. Copy number of C16orf54 on the various cell lines was determined. Peripheral blood mononuclear (PBMC) and bone marrow mononuclear (BMMC) cells from healthy donors were immunofluorescently stained using the antibodies of CD19, CD3, CD14, CD34, CD33, lineage markers, in addition to an anti-C16orf54 antibody and isotype control antibody, and then evaluated by flow cytometric analysis. […] In single lineage gated populations, C16orf54 is broadly expressed in CD19+ B cells, CD14+ monocytes, CD34+/lineage—progenitor cells and CD33+ myeloid cells, whereas CD3+ T cells have a distinctively low to undetectable level of C16orf54.
# [3] = molecular target: T3, C16orf54 in cells and human tissues (Homo sapiens, UniProt Q6UWD8); test: Human C16orf54 immunohistochemistry (IHC); type: binding
# T3 construct: from tissue; host or cells: isolated hematological tumour cells (lymphoma, AML, CLL) and human tissues, OCT-embedded frozen sections
# T3 sequence (Q6UWD8 1-224): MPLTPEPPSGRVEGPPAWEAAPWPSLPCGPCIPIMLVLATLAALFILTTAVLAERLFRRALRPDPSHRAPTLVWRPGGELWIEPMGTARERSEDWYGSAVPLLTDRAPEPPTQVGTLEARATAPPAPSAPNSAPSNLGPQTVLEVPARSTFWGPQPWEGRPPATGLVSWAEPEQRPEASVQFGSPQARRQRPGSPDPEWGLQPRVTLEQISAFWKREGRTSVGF
# Protocol: Anti-C16orf54 antibodies were used to detect C16orf54 expression as analyzed by immunohistochemistry (IHC). The transfected cell lines (5×10^7) and isolated hematological diseased cells were washed in PBS, centrifuged at 300 g for 10 minutes and the resultant cell pellets embedded and frozen in Tissue-Tek OCT compound (commercially available, e.g., Sakura Finetek USA, Inc., Torrence, Calif.; Fisher Scientific USA). 8 μm cryostat sections of the OCT embedded cells and human tissues were post-fixed in a 75% ethanol, 25% acetone mixture for 5 minutes followed by washing in PBS. The slides were then stained with exemplary primary anti-C16orf54 antibodies on a Dako Autostainer using standard avidin-biotin complex (ABC) IHC procedures. In some experiments, the endogenous peroxidase activity was blocked using Bloxall reagent (Vector SP-6000) for 5 minutes followed by avidin/biotin blocking reagents (Vector SP-2001) to block endogenous biotin within tissues. A pre-incubation with a protein blocker (Dako X0909) was performed followed by the primary antibodies incubation for 1 hour at room temperature. In some experiments, primary antibody 7-1C was diluted to a final concentration of 5 μg/ml and primary antibody 67-7A was diluted to a final concentration of 10 μg/ml using antibody diluent (Dako S3022). The control antibody used was a pan-mouse IgG antibody (Life Technologies 08-6599). In some experiments, after washing in PBS, the slides were incubated with a biotinylated horse anti-mouse antibody 1:200 (Vector BA-2001) for 30 minutes followed by a universal streptavidin-peroxidase conjugate (ABC-HRP Vector PK-6100) for 30 minutes. Diaminobenzedine was used as the chromagen (Sigma D5909) and the slides were counterstained with Mayers hematoxylin for 5 minutes, followed by dehydration and coverslipping.
# [4] = molecular target: T4, human C16orf54 (human, UniProt Q6UWD8 1-224); test: flow cytometry, KG-1 leukemia cells (endogenous C16orf54), 6 repeats
# T4 construct: also called huC16orf54; hC16orf54
# T4 sequence: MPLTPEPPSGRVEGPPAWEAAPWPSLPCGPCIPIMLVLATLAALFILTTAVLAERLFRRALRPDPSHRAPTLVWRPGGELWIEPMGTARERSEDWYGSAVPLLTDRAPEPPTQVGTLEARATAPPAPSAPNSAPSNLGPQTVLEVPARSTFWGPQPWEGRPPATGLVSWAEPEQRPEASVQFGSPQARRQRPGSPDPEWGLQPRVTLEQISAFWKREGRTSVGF
# [5] = molecular target: T5, human C16orf54 ECD fragment aa9-24 (human); test: peptide ELISA, 2 ug/ml peptide coated, 10 ug/ml antibody
# T5 peptide: SGRVEGPPAWEAAPWP
# Protocol: (§1) Anti-C16orf54 antibodies which bind to human C16orf54, including antibodies that are crossreactive with cyno C16orf54, were tested for their binding to various peptides derived from C16orf54 in a peptide ELISA. A 384-well high binding black microplate (Greiner) was incubated with 2 μg/ml of protein (human, cyno, or mouse extracellular domain peptides) for 16 hours, incubated for 1 hr with a blocking buffer (PBS with 5% Fetal Bovine Serum), washed four times with TBS with Tween, incubated for 1 hour with 10 μg/ml of anti-C16orf54 antibody, washed four times with TBS with Tween, incubated for 1 hour with 10 μg/ml of Peroxidase-AffiniPure Goat Anti-Mouse IgG, Fcγ Fragment Specific (Jackson ImmunoResearch), washed four times with TBS with Tween, and peroxidase was detected with a luminometer (Molecular Devices) upon addition of SuperSignal® ELISA Pico Chemiluminescent Substrate (Thermo Scientific). The luminescence signal was determined.
# [6] = molecular target: T6, human C16orf54 ECD fragment aa1-15 (human); test: as above
# T6 peptide: MPLTPEPPSGRVEGP
# Protocol: as §1
# [7] = molecular target: T4, human C16orf54; test: flow cytometry, WSU-FSCCL lymphoma cells (endogenous C16orf54), 3 repeats
# [8] = molecular target: T4, human C16orf54; test: flow cytometry, NCI-H716 colon cancer cells (endogenous C16orf54), 2 repeats
# [9] = molecular target: T4, human C16orf54; test: flow cytometry, CFPAC-1 pancreatic cancer cells (endogenous C16orf54), 3 repeats
molecule,measurement,setting,value
"R29-7-1C: murine anti-C16orf54 monoclonal antibody, IgG2a; VH SEQ ID NO: 8, VL SEQ ID NO: 10 (antibody, V domains shown, R29-7-1C heavy chain variable region; R29-7-1C light chain variable region) VH: MRVLILLWLFTAFPGILSDVQLQESGPGLVKPSQSLSLTCTVTGYSITSDYAWNWIRQFPGNKLEWMGYISYSGSIRYNPSLKSRISITRDTSKNQFFLQLNSVTTEDTATYYCAREKYDNYYYAMDYWGQGTSVTVSS VL: MDSQAQVLMLLLLWVSGTCGDIVMSQSPSSLAVSVGEKVTLSCKSSQNLLYSTNQKNYLAWYQQKPGQSPKLLIYWASTRESGVPDRFTGSGSGTDFTLTISSVKAEDLAVYYCQQYYSYRTFGGGTKLEIK",Bang's analysis Average copy #,[1]; Human cell line KG1/lymphoblast,"19,975 (1)"
same,Bang's analysis Average copy #,[1]; Human cell line KG1/myeloblast,"29,971 (10)"
same,Bang's analysis Average copy #,[1]; Human cell line KG1A,"11,198 (1)"
same,Bang's analysis Average copy #,[1]; Human cell line WSU-DLCL2,"5,517 (3)"
same,Bang's analysis Average copy #,[1]; Human cell line WSU-FSCCL,"4,221 (3)"
same,Bang's analysis Average copy #,[1]; Primary Sample CLL 1,"3,979 (1)"
same,Bang's analysis Average copy #,[1]; Primary Sample CLL 2,"10,515 (1)"
same,Bang's analysis Average copy #,[1]; Primary Sample CLL 3,"12,277 (1)"
same,Bang's analysis Average copy #,[1]; Primary Sample CLL 4,"11,240 (1)"
same,Bang's analysis Average copy #,[1]; Primary Sample Lymphoma 1,"10,630 (1)"
same,Bang's analysis Average copy #,[1]; Primary Sample Lymphoma 2,"34,397 (1)"
same,Bang's analysis Average copy #,[1]; Primary Sample MM 1,"5,798 (1)"
same,Bang's analysis Average copy #,[1]; Primary Sample MM 2,"7,590 (1)"
same,staining of PBMC and BMMC from healthy donors (C16orf54 expression),[2],low but positive expression of C16orf54 with slightly higher level in BMMCs
"R29-67-7A: murine anti-C16orf54 monoclonal antibody, IgG2a; VH SEQ ID NO: 12, VL SEQ ID NO: 14 (antibody, V domains shown, R29-67-7A heavy chain variable region; R29-67-7A light chain variable region) VH: MRVLILLWLFTAFPGILSDVQLQESGPGLVKPSQSLSLTCTVTGYSITSDYAWNWIRQFPGNKLEWMGYINYSGRTRYNPSLNSRISLTRDTSTNQFFLQLNSVTTEDTATYYCARENYDYEFYAMDYWGQGTSVTVSS VL: MESQAQVLMLLLLWVSGTCGDIVMSQSPSSLAVSVGEKVTMSCKSSQNLLYSSNQKNYLAWYQQKPGQSPKLLIYWASTRESGVPDRFTGSGSGTDFTLTISSVKAEDLAVYYCQQYYIYRTFGGGTKLEIK",C16orf54 (67-7A) IHC,[3]; AML sample AML-183L,Positive
same,C16orf54 (67-7A) IHC,[3]; AML sample AML-205L,Positive
same,C16orf54 (67-7A) IHC,[3]; AML sample AML-211L,Positive
same,C16orf54 (67-7A) IHC,[3]; AML sample AML-213L,Positive
same,C16orf54 (67-7A) IHC,[3]; CLL sample CLL-408L,Positive
same,C16orf54 (67-7A) IHC,[3]; CLL sample CLL-BC042,Positive
same,C16orf54 (67-7A) IHC,[3]; CLL sample CLL-BC043,Positive
same,C16orf54 (67-7A) IHC,[3]; CLL sample CLL-UF048,Positive
same,C16orf54 (67-7A) IHC,[3]; Lymphoma sample MD00402,Positive
same,C16orf54 (67-7A) IHC,[3]; Lymphoma sample OD39986,Positive
same,C16orf54 (67-7A) IHC,[3]; Lymphoma sample OD41079,Positive
same,C16orf54 (67-7A) IHC,[3]; Lymphoma sample OD41411,Positive
same,C16orf54 (67-7A) IHC,[3]; Lymphoma sample WD3517,Positive
same,IHC staining of hematological tumors,"[3]; frozen sections, 10 μg/ml primary antibody",confirm the C16orf54 IHC expression in hematological tumors
"R29-7-1C (antibody, V domains shown, Murine monoclonal IgG2a from a hybridoma) VH: DVQLQESGPGLVKPSQSLSLTCTVTGYSITSDYAWNWIRQFPGNKLEWMGYISYSGSIRYNPSLKSRISITRDTSKNQFFLQLNSVTTEDTATYYCAREKYDNYYYAMDYWGQGTSVTVSS VL: DIVMSQSPSSLAVSVGEKVTLSCKSSQNLLYSTNQKNYLAWYQQKPGQSPKLLIYWASTRESGVPDRFTGSGSGTDFTLTISSVKAEDLAVYYCQQYYSYRTFGGGTKLEIK",Average MFI fold change relative to isotype control,[4],16.9 fold
same,binding result,[5],binds
same,binding result,[6],binds
same,Average MFI fold change relative to isotype control,[7],13.7 fold
same,Average MFI fold change relative to isotype control,[8],3.4 fold
same,Average MFI fold change relative to isotype control,[9],1.6 fold
